Experimental data as given in patent US10562947B2, “Compositions and methods for preventing or treating diseases, conditions or processes characterized by aberrant fibroblast proliferation and extracellular matrix deposition” (MOERAE MATRIX, INC., priority 2011, dated 2020).

What was measured:
Experiment in all cases: Kinase Profiling Assay
Format in all cases: biochemical
Conditions in all cases: 100 μM peptide
IKKα(h) = biological target: T1, IKKα(h) (Homo sapiens, UniProt O15111)
T1 construct: purchased Millipore
T1 sequence (O15111 1-745): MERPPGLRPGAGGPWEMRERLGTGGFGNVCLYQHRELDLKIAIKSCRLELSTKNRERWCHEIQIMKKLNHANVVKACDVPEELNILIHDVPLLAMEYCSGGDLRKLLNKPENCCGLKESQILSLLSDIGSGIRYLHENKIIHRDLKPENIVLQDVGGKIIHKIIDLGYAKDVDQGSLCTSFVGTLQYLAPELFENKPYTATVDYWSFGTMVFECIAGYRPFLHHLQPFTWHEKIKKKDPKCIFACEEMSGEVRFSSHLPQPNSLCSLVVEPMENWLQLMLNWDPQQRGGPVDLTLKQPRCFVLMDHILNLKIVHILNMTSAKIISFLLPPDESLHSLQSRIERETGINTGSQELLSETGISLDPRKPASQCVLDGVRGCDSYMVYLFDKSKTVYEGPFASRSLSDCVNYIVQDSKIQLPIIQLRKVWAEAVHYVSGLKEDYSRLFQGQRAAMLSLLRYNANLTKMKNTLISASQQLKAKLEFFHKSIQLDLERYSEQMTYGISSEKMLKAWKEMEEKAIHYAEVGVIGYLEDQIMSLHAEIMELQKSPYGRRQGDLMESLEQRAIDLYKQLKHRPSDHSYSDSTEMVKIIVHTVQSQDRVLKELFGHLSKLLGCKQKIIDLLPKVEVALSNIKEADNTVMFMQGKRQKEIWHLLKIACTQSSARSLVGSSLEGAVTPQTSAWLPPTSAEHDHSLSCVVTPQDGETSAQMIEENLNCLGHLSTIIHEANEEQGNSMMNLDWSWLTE
How it was run: (§1)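 Read-out is kinase activity, measured twice per kinase, across 266 human kinases exposed to MK2 inhibitory peptides in a specificity screen.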

FGFR3(h) = FGFR3(h) (Homo sapiens, UniProt P22607)
How it was run: as §1

PKBα(h) = PKBα(h) (Homo sapiens, UniProt P31749)
How it was run: as §1

PhKγ2(h) = biological target: T2, PhKγ2(h) (Homo sapiens, UniProt P15735)
T2 sequence (P15735 1-406): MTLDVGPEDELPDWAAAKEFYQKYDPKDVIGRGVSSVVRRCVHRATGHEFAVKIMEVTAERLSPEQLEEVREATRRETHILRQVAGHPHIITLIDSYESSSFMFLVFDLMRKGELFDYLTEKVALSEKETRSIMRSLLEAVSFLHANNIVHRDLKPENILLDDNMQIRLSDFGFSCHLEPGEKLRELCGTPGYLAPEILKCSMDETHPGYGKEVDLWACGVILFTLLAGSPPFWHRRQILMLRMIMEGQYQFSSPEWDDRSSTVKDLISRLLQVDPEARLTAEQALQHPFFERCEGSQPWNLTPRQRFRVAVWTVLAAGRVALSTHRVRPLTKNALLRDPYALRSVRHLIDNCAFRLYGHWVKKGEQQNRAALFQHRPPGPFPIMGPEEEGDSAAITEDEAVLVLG
How it was run: as §1

MSK2(h) = MSK2(h) (Homo sapiens, UniProt O75676)
How it was run: as §1

IR(h), activated = biological target: T3, IR(h), activated (Homo sapiens, UniProt P06213)
T3 construct: purchased Millipore
How it was run: as §1

cKit(D816V)(h) = cKit(D816V)(h) (Homo sapiens, UniProt P10721, D816V)
How it was run: as §1

CDK5/p35(h) = CDK5/p35(h) (Homo sapiens, UniProt Q00535)
How it was run: as §1

Hck(h) activated = biological target: T4, Hck(h) activated (Homo sapiens, UniProt P08631)
T4 construct: purchased Millipore
How it was run: as §1

LKB1(h) = biological target: T5, LKB1(h) (Homo sapiens, UniProt Q15831)
T5 sequence (Q15831 1-433): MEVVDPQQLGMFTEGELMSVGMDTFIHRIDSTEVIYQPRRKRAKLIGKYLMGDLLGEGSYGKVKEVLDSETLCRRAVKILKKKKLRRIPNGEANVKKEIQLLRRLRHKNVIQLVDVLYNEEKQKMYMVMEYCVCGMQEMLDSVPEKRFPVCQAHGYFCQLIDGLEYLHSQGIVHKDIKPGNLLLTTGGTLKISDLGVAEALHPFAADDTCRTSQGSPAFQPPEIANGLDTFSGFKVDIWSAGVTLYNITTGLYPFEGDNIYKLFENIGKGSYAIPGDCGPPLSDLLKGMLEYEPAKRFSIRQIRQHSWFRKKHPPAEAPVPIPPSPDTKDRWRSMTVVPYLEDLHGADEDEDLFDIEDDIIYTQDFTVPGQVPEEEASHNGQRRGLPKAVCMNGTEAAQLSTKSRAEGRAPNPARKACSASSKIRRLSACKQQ
T5 sequence (Q7RTN6 1-431 partner): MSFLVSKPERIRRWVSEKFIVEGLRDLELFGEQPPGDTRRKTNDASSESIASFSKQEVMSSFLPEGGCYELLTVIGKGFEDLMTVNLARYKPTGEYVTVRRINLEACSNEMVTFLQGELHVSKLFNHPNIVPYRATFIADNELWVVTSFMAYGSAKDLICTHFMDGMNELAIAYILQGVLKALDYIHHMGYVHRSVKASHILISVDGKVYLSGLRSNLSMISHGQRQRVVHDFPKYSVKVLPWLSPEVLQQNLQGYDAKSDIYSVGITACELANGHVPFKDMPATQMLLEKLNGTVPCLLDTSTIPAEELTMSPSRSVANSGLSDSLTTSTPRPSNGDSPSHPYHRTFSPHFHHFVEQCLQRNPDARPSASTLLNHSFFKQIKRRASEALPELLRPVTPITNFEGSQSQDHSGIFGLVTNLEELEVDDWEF
T5 sequence (Q9Y376 1-341 partner): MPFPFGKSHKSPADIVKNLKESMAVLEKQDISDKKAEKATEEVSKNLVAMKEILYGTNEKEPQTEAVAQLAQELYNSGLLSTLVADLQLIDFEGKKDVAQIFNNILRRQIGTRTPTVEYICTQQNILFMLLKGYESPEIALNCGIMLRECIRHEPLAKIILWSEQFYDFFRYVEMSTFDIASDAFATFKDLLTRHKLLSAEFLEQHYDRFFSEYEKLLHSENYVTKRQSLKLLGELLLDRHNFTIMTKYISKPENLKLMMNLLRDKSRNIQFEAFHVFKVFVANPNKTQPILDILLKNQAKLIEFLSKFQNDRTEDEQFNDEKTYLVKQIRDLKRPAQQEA
How it was run: as §1

Sequence of PKBα(h) (P31749 whole entry): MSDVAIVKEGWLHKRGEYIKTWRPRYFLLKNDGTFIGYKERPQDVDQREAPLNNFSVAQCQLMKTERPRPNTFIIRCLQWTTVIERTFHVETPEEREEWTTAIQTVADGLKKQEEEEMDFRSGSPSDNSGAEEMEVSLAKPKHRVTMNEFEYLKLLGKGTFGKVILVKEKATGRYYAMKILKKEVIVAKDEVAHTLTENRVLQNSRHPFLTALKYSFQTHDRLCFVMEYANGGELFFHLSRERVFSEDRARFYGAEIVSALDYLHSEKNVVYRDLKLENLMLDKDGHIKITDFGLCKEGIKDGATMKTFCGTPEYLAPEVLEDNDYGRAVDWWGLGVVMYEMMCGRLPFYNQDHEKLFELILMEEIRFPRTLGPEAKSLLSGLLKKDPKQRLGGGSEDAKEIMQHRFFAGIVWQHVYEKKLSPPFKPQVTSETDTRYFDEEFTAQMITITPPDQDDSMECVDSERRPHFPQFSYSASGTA
Sequence of FGFR3(h) (P22607 23-806): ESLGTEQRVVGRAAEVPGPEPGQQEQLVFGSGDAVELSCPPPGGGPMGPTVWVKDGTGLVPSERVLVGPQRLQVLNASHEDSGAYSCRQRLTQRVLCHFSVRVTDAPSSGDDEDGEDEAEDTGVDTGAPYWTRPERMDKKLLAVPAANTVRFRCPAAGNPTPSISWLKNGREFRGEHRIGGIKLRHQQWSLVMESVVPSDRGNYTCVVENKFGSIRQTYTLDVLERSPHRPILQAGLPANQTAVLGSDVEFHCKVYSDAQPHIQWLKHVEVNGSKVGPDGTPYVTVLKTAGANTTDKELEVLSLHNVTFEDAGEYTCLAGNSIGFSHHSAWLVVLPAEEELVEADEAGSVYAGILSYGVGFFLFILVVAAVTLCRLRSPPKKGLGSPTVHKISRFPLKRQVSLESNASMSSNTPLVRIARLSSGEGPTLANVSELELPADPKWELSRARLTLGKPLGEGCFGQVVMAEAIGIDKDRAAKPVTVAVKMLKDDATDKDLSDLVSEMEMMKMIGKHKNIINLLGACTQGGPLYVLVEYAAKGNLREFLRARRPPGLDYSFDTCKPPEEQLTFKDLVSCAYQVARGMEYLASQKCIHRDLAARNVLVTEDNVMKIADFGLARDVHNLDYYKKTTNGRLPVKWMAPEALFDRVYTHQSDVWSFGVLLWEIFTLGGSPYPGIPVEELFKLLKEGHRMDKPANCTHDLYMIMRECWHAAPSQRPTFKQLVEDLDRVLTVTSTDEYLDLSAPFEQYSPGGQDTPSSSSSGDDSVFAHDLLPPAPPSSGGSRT
Sequence of CDK5/p35(h) (Q00535 whole entry): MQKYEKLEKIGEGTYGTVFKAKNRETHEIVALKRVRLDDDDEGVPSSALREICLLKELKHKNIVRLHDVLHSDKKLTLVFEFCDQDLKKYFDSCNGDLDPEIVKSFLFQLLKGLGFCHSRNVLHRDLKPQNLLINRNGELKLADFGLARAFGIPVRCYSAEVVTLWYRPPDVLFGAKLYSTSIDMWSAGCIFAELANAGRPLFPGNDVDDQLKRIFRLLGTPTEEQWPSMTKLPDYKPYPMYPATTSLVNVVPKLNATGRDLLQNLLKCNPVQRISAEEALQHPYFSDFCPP
Sequence of CDK5/p35(h) (Q15078 2-307 partner limits assumed): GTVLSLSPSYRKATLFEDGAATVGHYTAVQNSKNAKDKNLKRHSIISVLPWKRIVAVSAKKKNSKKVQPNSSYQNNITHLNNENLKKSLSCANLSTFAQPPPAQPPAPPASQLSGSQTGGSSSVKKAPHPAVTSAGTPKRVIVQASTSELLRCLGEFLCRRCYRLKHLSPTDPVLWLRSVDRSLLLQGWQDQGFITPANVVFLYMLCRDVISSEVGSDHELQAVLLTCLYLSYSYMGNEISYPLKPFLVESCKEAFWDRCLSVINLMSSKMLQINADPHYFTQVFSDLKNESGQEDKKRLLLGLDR
Sequence of MSK2(h) (O75676 whole entry): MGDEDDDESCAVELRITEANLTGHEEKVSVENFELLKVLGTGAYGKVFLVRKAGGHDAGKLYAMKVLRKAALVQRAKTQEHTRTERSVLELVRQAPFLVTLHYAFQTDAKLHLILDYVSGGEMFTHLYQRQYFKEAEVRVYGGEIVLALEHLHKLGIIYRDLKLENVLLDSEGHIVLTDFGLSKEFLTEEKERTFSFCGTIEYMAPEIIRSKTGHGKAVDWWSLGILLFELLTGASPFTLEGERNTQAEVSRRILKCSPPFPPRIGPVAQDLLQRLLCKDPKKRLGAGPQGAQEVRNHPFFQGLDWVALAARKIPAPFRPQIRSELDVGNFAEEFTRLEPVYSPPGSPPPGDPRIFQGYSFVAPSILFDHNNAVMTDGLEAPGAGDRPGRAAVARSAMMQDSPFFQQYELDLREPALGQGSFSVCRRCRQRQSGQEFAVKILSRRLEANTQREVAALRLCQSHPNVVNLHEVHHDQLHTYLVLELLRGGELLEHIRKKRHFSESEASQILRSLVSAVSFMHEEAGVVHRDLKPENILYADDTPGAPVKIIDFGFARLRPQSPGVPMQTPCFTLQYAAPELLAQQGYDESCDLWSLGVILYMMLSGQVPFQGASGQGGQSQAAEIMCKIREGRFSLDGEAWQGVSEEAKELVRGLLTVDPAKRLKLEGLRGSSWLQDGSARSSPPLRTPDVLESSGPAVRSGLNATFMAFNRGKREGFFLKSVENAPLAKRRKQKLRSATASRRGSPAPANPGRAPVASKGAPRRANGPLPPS
T4 sequence (P08631 whole entry): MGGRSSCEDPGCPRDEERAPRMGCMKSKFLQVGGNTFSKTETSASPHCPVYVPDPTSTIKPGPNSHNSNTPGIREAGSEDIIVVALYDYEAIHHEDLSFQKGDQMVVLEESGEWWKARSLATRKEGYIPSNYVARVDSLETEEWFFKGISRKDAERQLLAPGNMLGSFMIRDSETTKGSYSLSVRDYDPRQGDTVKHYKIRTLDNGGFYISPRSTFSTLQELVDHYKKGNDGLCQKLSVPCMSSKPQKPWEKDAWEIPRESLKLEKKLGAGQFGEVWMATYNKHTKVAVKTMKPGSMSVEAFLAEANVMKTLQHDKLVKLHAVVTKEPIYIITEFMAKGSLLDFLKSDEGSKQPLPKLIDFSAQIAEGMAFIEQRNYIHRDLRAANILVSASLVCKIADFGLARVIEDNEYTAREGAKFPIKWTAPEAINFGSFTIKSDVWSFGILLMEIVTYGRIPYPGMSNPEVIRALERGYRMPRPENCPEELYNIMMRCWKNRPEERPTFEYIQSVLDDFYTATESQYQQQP
T3 sequence (P06213 1005-1310 limits assumed): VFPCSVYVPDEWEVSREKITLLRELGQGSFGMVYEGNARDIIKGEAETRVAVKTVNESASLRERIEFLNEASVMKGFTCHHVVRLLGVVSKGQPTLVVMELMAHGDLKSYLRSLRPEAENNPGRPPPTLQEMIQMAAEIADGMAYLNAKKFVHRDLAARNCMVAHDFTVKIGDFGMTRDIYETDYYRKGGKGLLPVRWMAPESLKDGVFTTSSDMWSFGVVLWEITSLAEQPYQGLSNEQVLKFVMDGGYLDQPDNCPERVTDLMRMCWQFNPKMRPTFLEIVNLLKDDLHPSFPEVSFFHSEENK

**Q.** Which results are given for KAFAKLAARLYRKALARQLGVAA [MMI-0400]?
**A.** IKKα(h) % activity (IKKα(h)): 87%; FGFR3(h) % activity (FGFR3(h)): 0%; PKBα(h) % activity (PKBα(h)): 67%; PhKγ2(h) % activity (PhKγ2(h)): 38%; MSK2(h) % activity (MSK2(h)): 52%; IR(h), activated % activity (IR(h), activated): 59%; cKit(D816V)(h) % activity (cKit(D816V)(h)): 35%; CDK5/p35(h) % activity (CDK5/p35(h)): 76%; Hck(h) activated % activity (Hck(h) activated): 81%; LKB1(h) % activity (LKB1(h)): 89%

**Q.** How did the “FGFR3(h) % activity” value (FGFR3(h)) turn out when “YARAAARQARAKALNRQLGVA (Mammalian) [MMI-0200]” was run?
**A.** Its value is 208%.

**Q.** And the “PKBα(h) % activity” value (PKBα(h))?
**A.** The value was 110%.

**Q.** What about the “PhKγ2(h) % activity” value (PhKγ2(h)) of the same sequence?
**A.** The value was 86%.

**Q.** And the “MSK2(h) % activity” value (MSK2(h))?
**A.** Its value is 88%.

**Q.** And the “cKit(D816V)(h) % activity” value (cKit(D816V)(h))?
**A.** The value was 118%.

**Q.** What about the “CDK5/p35(h) % activity” value (CDK5/p35(h)) of the same sequence?
**A.** The value was 92%.

**Q.** And the “Hck(h) activated % activity” value (Hck(h) activated)?
**A.** Its value is 100%.

**Q.** And the “LKB1(h) % activity” value (LKB1(h))?
**A.** Its value is 99%.

**Q.** What does the source list for FAKLAARLYRKALARQLGVAA [MMI-0300]?
**A.** IKKα(h) % activity (IKKα(h)): 93%; PKBα(h) % activity (PKBα(h)): 57%; PhKγ2(h) % activity (PhKγ2(h)): 46%; MSK2(h) % activity (MSK2(h)): 56%; IR(h), activated % activity (IR(h), activated): 79%; cKit(D816V)(h) % activity (cKit(D816V)(h)): 60%; CDK5/p35(h) % activity (CDK5/p35(h)): 79%; Hck(h) activated % activity (Hck(h) activated): 82%; LKB1(h) % activity (LKB1(h)): 101%

**Q.** “HRRIKAWLKKIKALARQLGVAA (Mammalian) [MMI-0500]” was tested. Which “IKKα(h) % activity” value (IKKα(h)) did it give?
**A.** Its value is 50%.

**Q.** And the “FGFR3(h) % activity” value (FGFR3(h))?
**A.** Its value is 10%.

**Q.** And the “PKBα(h) % activity” value (PKBα(h))?
**A.** Its value is 30%.

**Q.** What about the “PhKγ2(h) % activity” value (PhKγ2(h)) of the same sequence?
**A.** Its value is 16%.

**Q.** What about the “MSK2(h) % activity” value (MSK2(h)) of the same sequence?
**A.** The value was 14%.

**Q.** And the “IR(h), activated % activity” value (IR(h), activated)?
**A.** Its value is 90%.

**Q.** And the “cKit(D816V)(h) % activity” value (cKit(D816V)(h))?
**A.** Its value is 30%.

**Q.** What about the “CDK5/p35(h) % activity” value (CDK5/p35(h)) of the same sequence?
**A.** Its value is 59%.

**Q.** What about the “Hck(h) activated % activity” value (Hck(h) activated) of the same sequence?
**A.** The value was 67%.

**Q.** And the “LKB1(h) % activity” value (LKB1(h))?
**A.** The value was 51%.
